According to the supplement of paper PMC7877785:
± gives the uncertainty stated by the source.

Assay: self-splicing fitness, log relative to wild type (ln ratio); higher = more splicing; Tetrahymena group I intron in knt gene, E. coli kanamycin selection, DiMSum; sequences stand for … in CUCUCU…GGAGGGAAAAGUUAUCAGGCAUGCACCUGGUAGCUAGUCUUUAAACCAAUAGAUUGCAUCGGUUUAAAAGGCAAGACCGUCAAAUUGCGGGAAAGGGGUCAACAGCCGUUCAGUACCAAGUCUCAGGGGAAACUUUGAGAUGGCCUUGCAAAGGGUAUGGUAAUAAGCUGACGGACAUGGUCCUAACCACGCAGCCAAGUCCUAAGUCAACAGAUCUUCUGUUGAUAUGGAUGCAGUUCACAGACUAAAUGUCGGUCGGGGAAGAUGUAUUCUUCUCAUAAGAUAUAGUCGGACCUCUCCUUAAUGGGAGCUAGCGGAUGAAGUGAUGCAACACUGGAGCCGCUGGGAACUAAUUUGUAUGCGAAAGUAUAUUGAUUAGUUUUGGAGUACUCGUGGUCG
Procedure, shortened: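 The eight P1ex-region nucleotides of an intron in the knt kanamycin-resistance gene on pET-22b(+) were all randomised and the library put into E. coli BL21(DE3). Six replicate transformations were grown overnight at 37°C or 30°C on LB agar with or without 25 μg/mL kanamycin, together with 100 μg/mL carbenicillin, 50 μM IPTG and 0.2% rhamnose. Colonies were pooled and amplicon-sequenced on an Illumina HiSeq 2500. Fitness from DiMSum is the error-weighted combination of wild-type-normalised replicate fold changes, kanamycin over none.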

| Sequence | self-splicing fitness (ln) (30 °C) | self-splicing fitness (ln) (37 °C) |
| --- | --- | --- |
| AGCCAGCAAUAUUACGUUAA | -2.44 ± 0.17 | -2.59 ± 0.2 |
| AGCCAGCAAUAUUACGUUGA | -3.31 ± 0.13 | -2.04 ± 0.16 |
| AGCCAGCAAUAUUACGUUUU | -3.78 ± 0.14 | -2.06 ± 0.11 |
| AGCGAGCAAUAUUACGACCG | -1.98 ± 0.23 | -1.84 ± 0.32 |
| AGCGAGCAAUAUUACGACGC | -1.92 ± 0.25 | 0.245 ± 0.2 |
| AGCGAGCAAUAUUACGAGGA | -2.36 ± 0.15 | -2.6 ± 0.22 |
| AGCGAGCAAUAUUACGAGUU | -2.61 ± 0.19 | -1.21 ± 0.18 |
| AGCGAGCAAUAUUACGAUGU | -2.99 ± 0.19 | -1.46 ± 0.18 |
| AGCGAGCAAUAUUACGCUGG | -3.39 ± 0.28 | -3.38 ± 0.42 |
| AGCGAGCAAUAUUACGGCAA | -1.93 ± 0.13 | -1.71 ± 0.15 |
| AGCGAGCAAUAUUACGGCCU | -0.967 ± 0.17 | -0.258 ± 0.19 |
| AGCGAGCAAUAUUACGGCGA | -0.915 ± 0.22 | -0.377 ± 0.27 |
| AGCGAGCAAUAUUACGGGCG | -1.23 ± 0.08 | -0.431 ± 0.099 |
| AGCGAGCAAUAUUACGGUCA | -2.05 ± 0.12 | -0.626 ± 0.11 |
| AGCGAGCAAUAUUACGGUUG | -2.69 ± 0.24 | -2.05 ± 0.21 |
| AGCGAGCAAUAUUACGUGAU | -2.98 ± 0.21 | -3.09 ± 0.35 |
| AGCGAGCAAUAUUACGUGUA | -2.83 ± 0.12 | -1.98 ± 0.13 |
| AGCGAGCAAUAUUACGUGUG | -3.86 ± 0.22 | -2.88 ± 0.17 |
| AGCGAGCAAUAUUACGUGUU | -3.06 ± 0.16 | -2.79 ± 0.26 |
| AGCGAGCAAUAUUACGUUUG | -3.44 ± 0.2 | -3.64 ± 0.31 |

| Sequence | self-splicing fitness (ln) (30 °C) | self-splicing fitness (ln) (37 °C) |
| --- | --- | --- |
| AGCUAGCAAUAUUACGAAGU | -4.06 ± 0.32 | -1.73 ± 0.26 |
| AGCUAGCAAUAUUACGACAA | -1.68 ± 0.18 | -1.34 ± 0.15 |
| AGCUAGCAAUAUUACGAGCA | -1.16 ± 0.21 | 0.177 ± 0.17 |
| AGCUAGCAAUAUUACGAUAC | -3.44 ± 0.49 | -1.59 ± 0.28 |
| AGCUAGCAAUAUUACGAUAU | -0.87 ± 0.17 | 0.27 ± 0.11 |
| AGCUAGCAAUAUUACGCAGU | -2.97 ± 0.19 | -2.02 ± 0.26 |
| AGCUAGCAAUAUUACGCGAU | -3 ± 0.31 | -2.14 ± 0.22 |
| AGCUAGCAAUAUUACGCGCC | -2.25 ± 0.23 | -2.04 ± 0.29 |
| AGCUAGCAAUAUUACGCGGG | -3.3 ± 0.15 | -1.53 ± 0.14 |
| AGCUAGCAAUAUUACGCUUU | -3.48 ± 0.25 | -2.57 ± 0.23 |
| AGCUAGCAAUAUUACGGAGG | -3.54 ± 0.16 | -1.33 ± 0.14 |
| AGCUAGCAAUAUUACGGCCC | -0.559 ± 0.2 | 0.0329 ± 0.35 |
| AGCUAGCAAUAUUACGGCUA | -0.83 ± 0.14 | -0.754 ± 0.15 |
| AGCUAGCAAUAUUACGGCUG | -0.696 ± 0.11 | -0.185 ± 0.14 |
| AGCUAGCAAUAUUACGGUAU | -1.44 ± 0.08 | -0.9 ± 0.1 |
| AGCUAGCAAUAUUACGUACA | -2.25 ± 0.23 | 0.0781 ± 0.18 |
| AGCUAGCAAUAUUACGUCAU | -2.65 ± 0.1 | -1.54 ± 0.1 |
| AGCUAGCAAUAUUACGUCGC | -3.1 ± 0.18 | -2.77 ± 0.36 |
| AGCUAGCAAUAUUACGUCGG | -2.97 ± 0.3 | -1.32 ± 0.26 |
| AGCUAGCAAUAUUACGUCUU | -0.517 ± 0.098 | 0.46 ± 0.14 |

| Sequence | self-splicing fitness (ln) (30 °C) | self-splicing fitness (ln) (37 °C) |
| --- | --- | --- |
| AGCUAGCAAUAUUACGUGCG | -1.02 ± 0.066 | -0.499 ± 0.091 |
| AGCUAGCAAUAUUACGUGGG | -4.49 ± 0.2 | -2.72 ± 0.15 |
| AGCUAGCAAUAUUACGUUAA | -2.49 ± 0.21 | -1.36 ± 0.14 |
| AGCUAGCAAUAUUACGUUAU | -4.39 ± 0.32 | -2.19 ± 0.17 |
| AGGAAGCAAUAUUACGAAAC | -2.83 ± 0.38 | – |
| AGGAAGCAAUAUUACGAAAU | -3.06 ± 0.2 | -1.53 ± 0.18 |
| AGGAAGCAAUAUUACGACGC | -0.0969 ± 0.13 | -0.574 ± 0.14 |
| AGGAAGCAAUAUUACGACUA | 0.0184 ± 0.094 | -0.351 ± 0.12 |
| AGGAAGCAAUAUUACGAGGC | -3.01 ± 0.3 | -2.31 ± 0.34 |
| AGGAAGCAAUAUUACGAUAU | -3.48 ± 0.19 | -2.5 ± 0.12 |
| AGGAAGCAAUAUUACGAUGC | -2.26 ± 0.17 | -1.04 ± 0.22 |
| AGGAAGCAAUAUUACGAUGG | -2.53 ± 0.16 | -1.88 ± 0.21 |
| AGGAAGCAAUAUUACGCAAA | -1.79 ± 0.14 | -1.23 ± 0.14 |
| AGGAAGCAAUAUUACGCAGU | -3.41 ± 0.15 | -0.746 ± 0.095 |
| AGGAAGCAAUAUUACGCCUA | -0.554 ± 0.12 | -0.497 ± 0.14 |
| AGGAAGCAAUAUUACGCGUG | -1.49 ± 0.072 | -0.951 ± 0.092 |
| AGGAAGCAAUAUUACGGACG | -0.899 ± 0.13 | 0.276 ± 0.14 |
| AGGAAGCAAUAUUACGGCGG | -1.34 ± 0.085 | -0.207 ± 0.11 |
| AGGAAGCAAUAUUACGGGUU | -3.14 ± 0.15 | -1.96 ± 0.15 |
| AGGAAGCAAUAUUACGUAUG | -2.39 ± 0.14 | -2.3 ± 0.16 |
